Key:
BxPC3 xenograft = test: In vivo efficacy of humanized Trop-2 ADCs, pancreatic tumor BxPC3 xenograft model; set-up: species or system CB17/SCID mice; conditions: single dose, tail vein; FIGS. 9A-9C
Procedure: In vivo efficacy studies of Trop-2 ADCs were performed with target-expressing BxPC3 xenograft model. Two million BxPC3 pancreatic cancer cells were implanted subcutaneously into 5-8 weeks old CB17/SCID mice until the tumor sizes reached between 300-400 mm^3. […] Tumor volume was measured once a week by a Caliper device and calculated with the following formula: Tumor volume=(length×width^2)/2. Studies were terminated before their tumor volumes reached 2000 mm^3.

[1] = test system: pancreatic cancer patient derived xenograft (PDX Pan144607); test: In vivo efficacy of Trop-2 ADC, pancreatic PDX Pan144607; set-up: species or system CB17/SCID mice; conditions: single dose of 1.5, 3.0 and 6.0 mg/kg, tail vein; FIG. 13
Procedure: In vivo efficacy study of Trop-2 ADC using humanized anti-Trop-2 antibody (h7E6SVG) conjugated with vc0101 or PEG6MMAD was performed with target-expressing pancreatic cancer patient derived xenograft model (PDX Pan144607). This tumor sample was derived from surgical specimen and propagated in NSG mice (Jackson Laboratories, Bar Harbor, Me.). For efficacy studies, approximately 1-2 mm^3 of tumor fragments were implanted subcutaneously into the lateral flanks of CB17/SCID mice. Animals were randomized by tumor sizes once they reached ˜300 mm^3, and single dose of 1.5, 3.0 and 6.0 mg/kg h7E6SVG-N297Q/K222R-PEG6MMAD and the control conjugate were administered through bolus tail vein injection. Tumor volume was measured once a week by a Caliper device and calculated with the following formula: Tumor volume=(length×width^2)/2. Studies were terminated before their tumor volumes reach 2000 mm^3.

[2] = test system: SW620 cells (Trop-2 non-expressing); test: Cytotoxicity of ADCs (CellTiter-Glo), SW620; format: cell-based; conditions: Table 13; SW620, Trop2 expression −; 96 hours; concentration of total Ab
[3] = test system: pancreatic cancer patient derived xenograft (PDX Pan0135); test: In vivo efficacy of Trop-2 ADC, pancreatic PDX Pan0135; conditions: 6 mg/kg single dose, tail vein; FIG. 14
Procedure: In vivo efficacy study of Trop-2 ADC using humanized anti-Trop-2 antibody (h7E6SVG) conjugated with PEG6MMAD was performed with target-expressing pancreatic cancer patient derived xenograft model (PDX Pan0135) from Jackson Laboratories. For efficacy studies, approximately 1-2 mm^3 of tumor fragments were implanted subcutaneously into the lateral flanks of the animals. Animals were randomized by tumor sizes once they reached ˜300 mm^3 and 6 mg/kg of h7E6SVG-N297Q/K222R-PEG6MMAD and the control conjugate were administered through bolus tail vein injection with single dose. Tumor volume was measured once a week by a Caliper device and calculated with the following formula: Tumor volume=(length×width^2)/2. Studies were terminated before their tumor volumes reached 2000 mm^3.

B1: h7E6SVG-N297Q/K222R-PEG6MMAD: h7E6SVG with N297Q/K222R mutations conjugated with PEG6-propionyl-MMAD (conjugate)
VH: QVQLQESGPGLVKPSETLSLTCTVSGGSISSYGVHWIRQPPGKGLEWIGVIWTSGVTDYNSALMGRVTISVDTSKNQFSLKLSSVTAADTAVYYCARDGDYDRYTMDYWGQGTLVTVSS
VL: DIVMTQSPDSLAVSLGERATINCRASKSVSTSGYSYMHWYQQKPGQPPKLLIYLASNLESGVPDRFSGSGSGTDFTLTISSLQAEDVAVYYCQHSRELPYTFGQGTKLEIK
BxPC3 xenograft
  tumor response, BxPC3 xenograft: tumor regression
[1]
  tumor response, Pan144607 PDX: tumor regression
[2]
  IC50: > 267 nM
[3]
  tumor response, Pan0135 PDX: tumor regression

From patent US10100114B2, “Antibodies specific for TROP-2 and their uses” (RINAT NEUROSCIENCE CORP., priority 2011, dated 2018)
